{"source": "patent US10398755B2", "about": "“Clusterin pharmaceuticals and treatment methods using the same” (UNIVERSITY OF SOUTHERN CALIFORNIA, priority 2009, dated 2019)", "molecules": {"B1": {"name": "CLU: secreted disulfide-linked heterodimeric glycoprotein (70-80 KD); assays used recombinant mouse CLU with C-terminal (His)6 (protein, UniProt Q06890 22-448, looked up)", "Clusterin": "EQEVSDNELQELSTQGSRYINKEIQNAVQGVKHIKTLIEKTNAERKSLLNSLEEAKKKKEDALEDTRDSEMKLKAFPEVCNETMMALWEECKPCLKHTCMKFYARVCRSGSGLVGQQLEEFLNQSSPFYFWMNGDRIDSLLESDRQQSQVLDAMQDSFARASGIIDTLFQDRFFARELHDPHYFSPIGFPHKRPHFLYPKSRLVRSLMSPSHYGPPSFHNMFQPFFEMIHQAQQAMDVQLHSPAFQFPDVDFLREGEDDRTVCKEIRRNSTGCLKMKGQCEKCQEILSVDCSTNNPAQANLRQELNDSLQVAERLTEQYKELLQSFQSKMLNTSSLLEQLNDQFNWVSQLANLTQGEDKYYLRVSTVTTHSSDSEVPSRVTEVVVKLFDSDPITVVLPEEVSKDNPKFMDTVAEKALQEYRRKSRAE", "modifications": "C-terminal His6 tag"}}, "key": {"MMP-2": {"biological_target": "T1, MMP-2 (Mus musculus, UniProt P33434)", "T1 construct": "purchased R&D Systems", "T1 sequence (P33434 110-662)": "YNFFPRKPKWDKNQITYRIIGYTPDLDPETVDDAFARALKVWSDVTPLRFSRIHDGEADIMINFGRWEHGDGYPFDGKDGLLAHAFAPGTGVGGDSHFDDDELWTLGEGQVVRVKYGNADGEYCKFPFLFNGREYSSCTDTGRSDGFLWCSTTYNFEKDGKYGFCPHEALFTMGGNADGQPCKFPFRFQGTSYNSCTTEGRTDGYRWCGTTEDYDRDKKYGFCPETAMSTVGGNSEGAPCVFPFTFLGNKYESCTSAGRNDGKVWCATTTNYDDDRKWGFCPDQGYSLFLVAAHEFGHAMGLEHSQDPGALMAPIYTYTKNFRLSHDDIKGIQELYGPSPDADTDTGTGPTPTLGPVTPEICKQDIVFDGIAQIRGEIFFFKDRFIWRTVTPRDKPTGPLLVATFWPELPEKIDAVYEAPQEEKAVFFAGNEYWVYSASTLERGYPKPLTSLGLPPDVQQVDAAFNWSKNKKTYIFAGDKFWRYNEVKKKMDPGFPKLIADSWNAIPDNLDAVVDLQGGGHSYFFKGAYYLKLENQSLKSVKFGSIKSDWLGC", "assay": "In vitro protein binding assay (CLU-His pull-down, gelatin zymography), MMP-2", "conditions": "150 mM NaCl binding buffer", "protocol": "A mixture of MMP-2, MMP-9, and C-terminal truncated MMP-9 (9-ΔC) was incubated with His-tagged CLU, used in a pull-down assay and resolved on a gelatin zymography gel. The input and bound samples were loaded in a series of dilution.\nNext, we tested the interaction of secreted CLU using mouse recombinant proteins. We used purified recombinant proteins of MMP-2, MMP-9, and CLU that were secreted from a mouse myeloma cell line (NSO). All of the proteins were purchased from R&D Systems. A mixture of MMP-2, MMP-9, and C-terminal truncated MMP-9 (9-ΔC) was incubated with His-tagged CLU, and subjected to the pull-down assay, using 150 mM NaCl-containing binding buffer and anti-His tag antibody resins. Portions of the input samples (Input) and proteins bound to the antibody (Bound) were resolved on the gelatin zymography gel.\nThe recombinant CLU contains a (His)6-Tag at the C-terminus of the protein, which was used for pull-down experiments with anti-His tag antibody beads. It was previously reported that CLU also binds to MT6-MMP/mmp-25 and that the hemopexin domain in the MMP C-terminal region is required for their interaction (Matsuda et al., 2003). To use as an internal control for the binding experiment, we removed part of MMP-9 (MMP-9-ΔC) by promoting self-processing by APMA (4-aminophenylmercuric acetate) treatment. […]"}, "[1]": {"biological_target": "T2, catalytic domain of human MMP-9 (residue 112-445) (Homo sapiens, UniProt P14780)", "T2 construct": "The recombinant catalytic domain of human MMP-9 (residue 112-445) was purchased from ProtEra; purchased ProtEra", "T2 sequence (P14780 112-445)": "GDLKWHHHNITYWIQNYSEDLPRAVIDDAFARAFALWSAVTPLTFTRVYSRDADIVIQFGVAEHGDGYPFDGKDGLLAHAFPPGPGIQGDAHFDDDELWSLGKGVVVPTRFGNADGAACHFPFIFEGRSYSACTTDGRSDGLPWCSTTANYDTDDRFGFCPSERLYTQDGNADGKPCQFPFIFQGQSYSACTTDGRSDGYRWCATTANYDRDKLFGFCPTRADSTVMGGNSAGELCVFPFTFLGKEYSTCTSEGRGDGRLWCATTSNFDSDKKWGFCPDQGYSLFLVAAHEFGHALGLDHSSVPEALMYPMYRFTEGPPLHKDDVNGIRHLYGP", "assay": "MMP inhibition assay (FRET peptide substrate), recombinant MMP-9 catalytic domain", "assay_type": "biochemical", "conditions": "CLU 50 μg/ml (0.63 μM), RT 0.3 h", "protocol": "(§1) Recombinant MMP-9 catalytic domain (A) or APMA-activated MMP-7 (B) was incubated with PBS, CLU (50 μg/ml or 0.63 μM), SB3-CT (2 μM), or BSA (50 μg/ml), and MMP FRET substrate at RT for 0.3 h. RFU in PBS samples was considered 100%. Each reaction was performed in triplicate. Standard errors were depicted as a bar in each graph. MMPs were mixed with CLD in TSCB buffer, 50 mM Tris-HCI, pH, 7.5, 150 mM NaCl, 5 mM CaCl2, 0.002% Brij35 (or otherwise indicated concentration) 30 min prior to substrate addition, and incubated for 3 h at RT in the presence or absence of 0.02 mM p-aminophenylmercuric acetate (APMA). MMP activity was measured using a 5-FAM/QXL520 fluorescence resonance energy transfer (FRET) peptide as a substrate (EXlEm=490 nm/520 nm) (AnaSpec, Fremont, Calif.), according to the manufacturer's protocol. Relative fluorescence unit (RFU) was obtained by subtracting the values of APMA- or enzyme-omitted reactions from those of test samples, and then considering the fluorescence unit of a PBS (vehicle) sample as 100%. Enzyme reactions were performed in black 96-well plate, containing combinations of 10 ng, 5 ng, 5 ng, 10 ng, 2.5 μg, 2.5 μg of MMP-2, MMP-7, catalytic domain of MMP-9, MMP-9, CCLU, and/or BSA, respectively, in 50 μl reaction volume. As MMP substrates (0.4 μM), 520 MMP FRET substrate […] […] Fluorescence was monitored using a Victor^3TM V multilabel counter (PerkinElmer). […]"}, "MMP-7": {"biological_target": "T3, MMP-7 (Mus musculus, UniProt Q10738)", "T3 construct": "purchased R&D Systems", "T3 sequence (Q10738 95-264)": "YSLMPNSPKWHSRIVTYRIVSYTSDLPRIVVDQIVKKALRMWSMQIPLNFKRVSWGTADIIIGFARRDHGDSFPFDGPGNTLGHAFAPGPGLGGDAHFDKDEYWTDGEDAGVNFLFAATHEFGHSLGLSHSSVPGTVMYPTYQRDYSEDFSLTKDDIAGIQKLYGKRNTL", "assay": "MMP inhibition assay (FRET peptide substrate), APMA-activated MMP-7", "assay_type": "biochemical", "conditions": "CLU 50 μg/ml (0.63 μM), RT 0.3 h", "protocol": "as §1"}}, "data": [{"molecule": "B1", "values": [{"measurement": "binding of MMP-2 to His-tagged CLU", "setting": "MMP-2", "result": "Though weaker than MMP-9, MMP-2 also had an affinity for CLU"}, {"measurement": "inhibition of MMP-9 catalytic domain activity", "setting": "[1]", "result": 59, "unit": "%"}, {"measurement": "inhibition of APMA-activated MMP-7", "setting": "MMP-7", "result": 17, "unit": "%"}]}]}
